Substitutions are numbered along the chain they refer to. Like-named read-outs stand apart in the source and are kept apart here. Blank lines part the entries; values can stand above or below the binder they belong to.
Columns and labels:
[1] = target: T1, human PD-L1 overexpressed on CHO cells (human, UniProt Q9NZQ7 19-290); assay: cell-based or functional assay
[2] = target: T2, PD-L1-His-Biotin (human, UniProt Q9NZQ7 19-238, biotin-labelled (sites not given)); assay: flow cytometry of yeast-displayed scFv with 1 nM PD-L1-His-Biotin, Streptavidin-PE
T2 construct: also called PD-L1-His-Biotin antigen protein
Protocol: (§1) The yeasts described above were incubated with 1 nM of PD-L1-His-Biotin antigen protein at room temperature for 1 h, washed 3 times with PBS at pH 7.4, then incubated with Streptavidin-PE fluorescent secondary antibody at room temperature for 30 min, and washed 3 times with PBS at pH 7.4. The fresh PBS was added, and loaded on the machine for assay.

[3] = target: T2, PD-L1-His-Biotin; assay: flow cytometry of yeast-displayed scFv with 1 nM PD-L1-His-Biotin, Streptavidin-PE; positive rate %
Protocol: as §1

[4] = target: T1, human PD-L1 overexpressed on CHO cells; assay: cell-based or functional assay; remark: listed apart in the source

T2 sequence (Q9NZQ7 other isoform, or with tags, fused parts or gaps): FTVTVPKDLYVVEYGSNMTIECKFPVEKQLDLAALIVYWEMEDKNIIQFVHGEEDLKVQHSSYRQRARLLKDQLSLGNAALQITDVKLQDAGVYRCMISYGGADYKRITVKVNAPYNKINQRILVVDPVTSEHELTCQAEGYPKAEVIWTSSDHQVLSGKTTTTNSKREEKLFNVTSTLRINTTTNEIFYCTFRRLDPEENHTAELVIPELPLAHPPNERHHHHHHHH
T1 sequence (Q9NZQ7 19-290): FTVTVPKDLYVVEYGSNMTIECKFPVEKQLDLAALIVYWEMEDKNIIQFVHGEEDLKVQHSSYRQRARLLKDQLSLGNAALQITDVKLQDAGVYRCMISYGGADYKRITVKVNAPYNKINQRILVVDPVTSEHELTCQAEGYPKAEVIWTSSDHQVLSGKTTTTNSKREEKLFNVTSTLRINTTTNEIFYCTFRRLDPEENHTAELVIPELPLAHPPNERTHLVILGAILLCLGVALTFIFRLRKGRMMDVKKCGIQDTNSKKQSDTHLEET

B1: L1-R2-6 (antibody, V domains shown)
VH: not shown
VL: EIVLTQSPSSVSASVGDKLTMTCQASQDIGKHLNWYQQKPGKPPKLLIYGASNLKTGVPSRFSGTGSGTDFTLTISSLQPEDFATYYCQQSYTTPYTFGQGTRLEIKR
- EC50 (luciferase reporter luminescence, PD-1/PD-L1 Blockade Bioassay, CHO-PD-L1 + Jurkat-PD1 cells) [1]: 3.92 µg/mL

B7: L1-R2-18 (antibody, V domains shown)
VH: not shown
VL: EIVLTQSPSSVSASVGDRITITCRASQGIGSWLAWYQQKPGKAPSLLIYAASSLQSGVPSRFSGSGSGTDFTLTISSLQTEDVAVYYCQQYFSTPYTFGQGTKVDIKR
- EC50 (luciferase reporter luminescence, PD-1/PD-L1 Blockade Bioassay, CHO-PD-L1 + Jurkat-PD1 cells) [1]: 5.09 µg/mL

B8: L1-R2-85 (antibody, V domains shown)
VH: not shown
VL: B7 VL with E1D, V3Q, L4M, V11L, I19V, T22P, S31K, W32F
- EC50 (luciferase reporter luminescence, PD-1/PD-L1 Blockade Bioassay, CHO-PD-L1 + Jurkat-PD1 cells) [1]: 5.22 µg/mL

B9: L1-R2-78 (antibody, V domains shown)
VH: not shown
VL: DIQMTQSPSSFSASTGDRVTITCRASQGISSYLAWYQQKPGKAPKLLIYAASRLQSGVPSRFSGSGSGTDFTLTISSLQAEDVAVYYCQQYYSTPYTFGQGTKVDIKR
- EC50 (luciferase reporter luminescence, PD-1/PD-L1 Blockade Bioassay, CHO-PD-L1 + Jurkat-PD1 cells) [1]: 3.57 µg/mL

B10: L1-R2-4 (antibody, V domains shown)
VH: not shown
VL: EIVLTQSPSSLSASVGDRVTITCLASQTIGTWLAWYQQKPGKSPQLLIYAASTLQSGVPSRFSGSGSGTDFTLTISSLQPEDVATYYCQQYYSTPRTFGQGTKVEIKR
- EC50 (luciferase reporter luminescence, PD-1/PD-L1 Blockade Bioassay, CHO-PD-L1 + Jurkat-PD1 cells) [1]: 2.74 µg/mL

B11: L1-R2-4-71 (antibody, human IgG1, kappa, V domains shown)
VH: EVQLVESGGGLVQPGGSLRLSCAASGFTFSDSWIHWVRQAPGKGLEWVGWISPYGGSTYYADSYRSRFTISADTSKNTAYLQMNSLRAEDTAVYYCARRHWPGGFDYWGQGTLVTVSS
VL: B10 VL
- EC50 (luciferase reporter luminescence, PD-1/PD-L1 Blockade Bioassay, CHO-PD-L1 + Jurkat-PD1 cells) [4]: 0.382 µg/mL

B12: L1-R2-4-36 (antibody, human IgG1, kappa, V domains shown)
VH: B11 VH with S63D, Y64F, S66H
VL: B10 VL
- EC50 (luciferase reporter luminescence, PD-1/PD-L1 Blockade Bioassay, CHO-PD-L1 + Jurkat-PD1 cells) [4]: 0.148 µg/mL

B14: L1-R2-4-47 (antibody, human IgG1, kappa, V domains shown)
VH: B11 VH with S63H, Y64L, R65S, S66Q
VL: B10 VL
- EC50 (luciferase reporter luminescence, PD-1/PD-L1 Blockade Bioassay, CHO-PD-L1 + Jurkat-PD1 cells) [4]: 0.389 µg/mL

B15: L1-R2-4-46 (antibody, human IgG1, kappa, V domains shown)
VH: B11 VH with Y64L, R65G, S66D
VL: B10 VL
- EC50 (luciferase reporter luminescence, PD-1/PD-L1 Blockade Bioassay, CHO-PD-L1 + Jurkat-PD1 cells) [4]: 0.224 µg/mL

B16: L1-R2-4-55 (antibody, human IgG1, kappa, V domains shown)
VH: B11 VH with S63G, Y64M
VL: B10 VL
- EC50 (luciferase reporter luminescence, PD-1/PD-L1 Blockade Bioassay, CHO-PD-L1 + Jurkat-PD1 cells) [4]: 0.401 µg/mL

Continued, values first:

- binding result [2]: binds
B2: CP11-71 scFv (scFv)
scFv: EVQLVESGGGLVQPGGSLRLSCAASGFTFSDSWIHWVRQAPGKGLEWVGWISPYGGSTYYADSYRSRFTISADTSKNTAYLQMNSLRAEDTAVYYCARRHWPGGFDYWGQGTLVTVSSGGGGSGGGGSGGGGSEIVLTQSPSSLSASVGDRVTITCLASQTIGTWLAWYQQKPGKSPQLLIYAASTLQSGVPSRFSGSGSGTDFTLTISSLQPEDVATYYCQQYYSTPRTFGQGTKVEIK
notes: display fusion partner not described; VH at N terminus

- binding result [3]: binds
B3: CP22-45 (scFv)
scFv (VH - linker - VL, VH at the N terminus): B2 scFv with G26N, F27S, T28H, F29L, S30R, Y64V, R65K, S66G
notes: also called CP22-45 scFv

- binding result [3]: binds
B4: CP21-59 (scFv)
scFv (VH - linker - VL, VH at the N terminus): B2 scFv with G26S, T28S, F29L, S30K, Y64V, R65K, S66G
notes: also called CP21-59 scFv

- binding result [3]: binds
B5: CP22-44 (scFv)
scFv (VH - linker - VL, VH at the N terminus): B2 scFv with F27L, T28R, F29P, S30A, Y64V, R65K, S66G
notes: also called CP22-44 scFv

- binding result [3]: binds
B6: CP22-40 (scFv)
scFv (VH - linker - VL, VH at the N terminus): B2 scFv with Y64V, R65K, S66G, F105L, D106L, Y107P
notes: also called CP22-40 scFv

- EC50 (luciferase reporter luminescence, PD-1/PD-L1 Blockade Bioassay, CHO-PD-L1 + Jurkat-PD1 cells) [1]: 3.78 µg/mL
B13: L1-R2-89 (antibody, V domains shown)
VH: not shown
VL: B10 VL with E1D, V3Q, L4M, T53S, R96Y, E105D
